T1: human FcγRIIA_131H (CD32a) extracellular domain (human, UniProt P12318 34-217)
T1 construct: extracellular domain
T1 sequence (looked up): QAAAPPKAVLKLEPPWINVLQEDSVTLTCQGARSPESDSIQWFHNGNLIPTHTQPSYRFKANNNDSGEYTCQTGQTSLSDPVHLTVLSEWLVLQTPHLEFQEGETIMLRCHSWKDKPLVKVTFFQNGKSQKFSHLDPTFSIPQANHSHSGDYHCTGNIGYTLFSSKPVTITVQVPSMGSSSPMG

T2: human FcγRIIA_131R (CD32a) extracellular domain (human, UniProt P12318 34-217)
T2 construct: extracellular domain
T2 sequence (looked up): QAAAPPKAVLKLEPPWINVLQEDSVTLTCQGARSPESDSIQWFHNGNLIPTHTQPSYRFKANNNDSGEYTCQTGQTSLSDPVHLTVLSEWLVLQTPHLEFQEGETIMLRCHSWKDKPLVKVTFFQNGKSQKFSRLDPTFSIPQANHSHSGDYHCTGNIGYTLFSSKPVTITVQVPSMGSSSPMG

T3: human FcγRIIb (CD32b) extracellular domain (human, UniProt P31994 43-217)
T3 construct: extracellular domain
T3 sequence (looked up): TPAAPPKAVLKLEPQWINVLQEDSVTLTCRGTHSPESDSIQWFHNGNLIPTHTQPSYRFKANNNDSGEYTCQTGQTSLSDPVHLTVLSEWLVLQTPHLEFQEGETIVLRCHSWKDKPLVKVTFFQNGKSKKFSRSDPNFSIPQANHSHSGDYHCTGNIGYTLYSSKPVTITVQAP


How the values were obtained:
[1] = target: T4, hexahistidine tagged human IL-4Rα ECD F41A (human, UniProt P24394 26-232); experiment: capture ELISA: Ab1 on anti-human IgG Fc, His-tagged receptor at 0.04 µg/mL, anti-His HRP
T4 construct: not shown: hexahistidine tag
Excerpt: (§1) Example 2d. […] Briefly, thirty surface amino acid residue substitutions were introduced individually into hexahistidine tagged human IL-4Rα extra cellular domain (ECD) as follows: K2D, E6R, K22D, P26R, T31R, F41A, L42G, L43G, E45R, E52R, G56R, D66R, A71R, Q82G, K87D, E94R, H107A, D108R, P124R, D125R, D143R, R148D, L155R, R160D, S164R, S168R, Q181R, P192R, K195D, or H197G. Each mutant protein having a single amino acid residue substitution as described above was transiently expressed in CHO cells and purified using standard immobilized metal affinity chromatography techniques. […] The plates were then washed 3 times with PBST and the exemplified human IL-4Rα antibody was added to the wells at a final concentration of 1 μg/mL in PBS-casein and incubated for 1 hour at room temperature. The plates were washed 3 times with PBST, the IL-4Rα mutant proteins were serially diluted 5-fold from 1 μg/mL for 3 points. in PBS-casein and added to the plate at 50 μL/well and incubated for 1 hour at room temperature. The plates were washed 3 times with PBST and a 1000-fold dilution of anti-histidine tag antibody HRP conjugate (R&D Systems, Cat. #MAB050H) in PBS-casein was added and incubated for 45 minutes at room temperature. The plates were washed 3 times, TMB substrate (Pierce, Cat. #34028) was added per manufacturer instructions, the reaction was quenched with H₂SO₄, and absorbance was read at 450 nm on an ELISA plate reader.

[2] = target: T5, hexahistidine tagged human IL-4Rα ECD L43G (human, UniProt P24394 26-232); experiment: as above
T5 construct: not shown: hexahistidine tag
Excerpt: as §1

[3] = target: T6, hexahistidine tagged human IL-4Rα ECD E52R (human, UniProt P24394 26-232); experiment: as above
T6 construct: not shown: hexahistidine tag
Excerpt: as §1

[4] = target: T7, hexahistidine tagged human IL-4Rα ECD G56R (human, UniProt P24394 26-232); experiment: as above
T7 construct: not shown: hexahistidine tag
Excerpt: as §1

[5] = target: T1, human FcγRIIA_131H (CD32a) …; experiment: SPR (Biacore), antibody captured on protein A, FcγR ECD as analyte, steady state, 25 °C
Method: (§2) Unreacted sites were blocked with a 7 minute injection of ethanolamine at 10 μL/minute. Injections of 2×10 μL of glycine, pH 1.5, was used to remove any noncovalently associated protein. Running buffer was 1×HBS-EP+(TEKNOVA, P/N H8022). The FcγR extracellular domains (ECDs)-FcγRI (CD64), FcγRIIA_131R, and FcγRIIA_131H (CD32a), FcγRIIIA_158V, FcγRIIIA_158F (CD16a), and FcγRIIb (CD32b) were produced from stable CHO cell expression and purified using IgG Sepharose and size exclusion chromatography. For FcγRI binding, antibodies were diluted to […] in running buffer, and approximately 150 RU of each antibody was captured in FCs 2 through 4 (RU captured). FC1 was the reference FC, therefore no antibody was captured in FC1. […] Duplicate injections of each concentration were injected over all FCs at 40 μL/minute for 120 seconds followed by a 1200 second dissociation phase. Regeneration was performed by injecting 15 μL of 10 mM glycine, pH 1.5, at 30 μL/minute over all FCs. Reference-subtracted data was collected as FC2 FC1, FC3-FC1, and FC4-FC1 and the measurements were obtained at 25° C. The affinity (KD) was calculated using either steady state equilibrium analysis with the Scrubber 2 Biacore Evaluation Software or a “1:1 (Langmuir) binding” model in BIA Evaluation. For FcγRIIa, FcγRIIb, and FcγRIIIa binding, antibodies were diluted to 5 μg/mL in running buffer, and approximately 500 RU of each antibody was captured in FCs 2 through 4). FC1 was the reference FC. […] Duplicate injections of each concentration were injected over all FCs at 40 μL/minute for 60 seconds followed by a 120 second dissociation phase. Regeneration was performed by injecting 15 μL of 10 mM glycine, pH 1.5, at 30 μL/minute over all FCs. Reference-subtracted data was collected as FC2-FC1, FC3-FC1, and FC4-FC1, and the measurements were obtained at 25° C. The affinity (KD) was calculated using the steady state equilibrium analysis with the Scrubber 2 Biacore Evaluation Software. Each receptor was assayed at least two times.

[6] = target: T2, human FcγRIIA_131R (CD32a) …; experiment: as above
Method: as §2

[7] = target: T3, human FcγRIIb (CD32b) extracellular …; experiment: as above
Method: as §2

[8] = target: T8, human FcγRIIIA_158V (CD16a) extracellular domain (human, UniProt P08637 17-208); experiment: as above
T8 construct: extracellular domain
Method: as §2

T4 sequence (P24394 26-232 F66A): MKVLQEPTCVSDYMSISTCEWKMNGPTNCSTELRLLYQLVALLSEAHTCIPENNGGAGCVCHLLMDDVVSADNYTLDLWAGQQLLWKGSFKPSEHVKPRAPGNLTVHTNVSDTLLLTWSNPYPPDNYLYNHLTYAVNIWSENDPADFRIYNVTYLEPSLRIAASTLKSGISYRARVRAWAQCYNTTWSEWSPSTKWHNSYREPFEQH
T8 sequence (P08637 17-208 F176V): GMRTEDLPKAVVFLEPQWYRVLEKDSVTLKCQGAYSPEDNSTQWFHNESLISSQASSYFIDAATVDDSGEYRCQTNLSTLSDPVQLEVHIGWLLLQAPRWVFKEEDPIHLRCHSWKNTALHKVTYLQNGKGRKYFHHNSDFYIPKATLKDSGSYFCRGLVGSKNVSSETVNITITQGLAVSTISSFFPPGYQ

Row | ELISA (OD450) [1] [OD450] | ELISA (OD450) [2] [OD450] | ELISA (OD450) [3] [OD450] | ELISA (OD450) [4] [OD450] | Kd [5] [µM] | Kd [6] [µM] | Kd [7] [µM] | Kd [8] [µM] | Binder
1 | 1.15 | 1.35 | 1.1 | 1.17 |  |  |  |  | anti-human IL-4Rα antibody Ab1 (antibody, human IgG4 S228P, kappa, human kappa light chain; also called anti-human IL-4Rα Ab1; unconjugated Ab1) heavy: QVQLVESGGGLVQPGGSLRLSCVASGFTFSHSSMNWVRQAPGKGLEWVSYISRATGAVYYADSVKGRFTISRDNAKNSLYLQMNSLRDEDTAVYYCAREPVFDYWGQGTLVTVSSASTKGPCVFPLAPCSRSTSESTAALGCLVKDYFPEPVTVSWNSGALTSGVHTFPAVLQSSGLYSLSSVVTVPSSSLGTKTYTCNVDHKPSNTKVDKRVESKYGPPCPPCPAPEFLGGPSVFLFPPKPKDTLMISRTPEVTCVVVDVSQEDPEVKFNWYVDGVEVHNAKTKPREEQFNSTYRVVSVLTVLHQDWLNGKEYKCKVSNKGLPSSIEKTISKAKGQPREPQVYTLPPSREEMTKNQVSLTCLVKGFYPSDICVEWESNGQPENNYKTTPPVLDSDGSFFLYSRLTVDKSRWQQGNVFSCSVMHEALHNHYTQKSLSLSLG light: DIQMTQSPSAMSASVGDRVTITCRASQDISNYLAWFQQKPGKVPTRLIYAASSLQSGVPSRFSGSGSGTEFTLTISSLQPEDFATYYCLQWSSYPRTFGQGTKVEIKRTVAAPSVFIFPPSDEQLKSGTASVVCLLNNFYPREAKVQWKVDNALQSGNSQESVTEQDSKDSTYSLSSTLTLSKADYEKHKVYACEVTHQGLSSPVTKSFNRGEC
2 |  |  |  |  | 3.65 | 1.82 | 1.96 | 4.92 | anti-human IL-4Rα Ab1 GC conjugate of Example 1b (n=4) (antibody, human IgG4 S228P, kappa, glucocorticoid receptor agonist payload-linker (GC-L, Preparation 8) conjugated to the engineered cysteines at the 124 and 378 position of the heavy chain (EU numbering); n is 4 (average DAR 4.17 by RP-HPLC, 3.85 by TOF MS)) heavy: QVQLVESGGGLVQPGGSLRLSCVASGFTFSHSSMNWVRQAPGKGLEWVSYISRATGAVYYADSVKGRFTISRDNAKNSLYLQMNSLRDEDTAVYYCAREPVFDYWGQGTLVTVSSASTKGPCVFPLAPCSRSTSESTAALGCLVKDYFPEPVTVSWNSGALTSGVHTFPAVLQSSGLYSLSSVVTVPSSSLGTKTYTCNVDHKPSNTKVDKRVESKYGPPCPPCPAPEFLGGPSVFLFPPKPKDTLMISRTPEVTCVVVDVSQEDPEVKFNWYVDGVEVHNAKTKPREEQFNSTYRVVSVLTVLHQDWLNGKEYKCKVSNKGLPSSIEKTISKAKGQPREPQVYTLPPSREEMTKNQVSLTCLVKGFYPSDICVEWESNGQPENNYKTTPPVLDSDGSFFLYSRLTVDKSRWQQGNVFSCSVMHEALHNHYTQKSLSLSLG light: DIQMTQSPSAMSASVGDRVTITCRASQDISNYLAWFQQKPGKVPTRLIYAASSLQSGVPSRFSGSGSGTEFTLTISSLQPEDFATYYCLQWSSYPRTFGQGTKVEIKRTVAAPSVFIFPPSDEQLKSGTASVVCLLNNFYPREAKVQWKVDNALQSGNSQESVTEQDSKDSTYSLSSTLTLSKADYEKHKVYACEVTHQGLSSPVTKSFNRGEC
